In the supplement of paper PMC7125110:
± gives the standard error. This sample holds only a part of the variants without activity.

B1: glmS ribozyme (parent)
chain: AUAAAAGCGCCAGAACUACAGAAAUGUAGUUGACGAGGAGGAGGUUUAUCGAAUUUUCGGCGGAUGCCUCCAAA

Assays:
Details in all cases: with glucosamine-6-phosphate
[1] = variants of: B1; experiment: self-cleavage kobs at 160 uM GlcN6P; higher = faster cleavage; RNA array
How it was run: (§1)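 Weighted Michaelis–Menten fits across concentrations supplied kcat and KM, based on kobs from one- or two-exponential decay fits to normalised per-tile medians. The data came from barcoded ribozyme variants transcribed in situ by E. coli RNA polymerase on sequenced MiSeq chips and tracked at 37 °C by a hybridised Cy3 probe. Glucosamine-6-phosphate (40 μM to 10 mM) in HEPES/KCl/Mg(OAc)2 buffer was flowed in.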

[2] = variants of: B1; experiment: self-cleavage kobs at 640 uM GlcN6P; higher = faster cleavage; RNA array
How it was run: as §1

[3] = variants of: B1; experiment: self-cleavage kobs at 2500 uM GlcN6P; higher = faster cleavage; RNA array
How it was run: as §1

[4] = variants of: B1; experiment: self-cleavage kobs at 10000 uM GlcN6P; higher = faster cleavage; RNA array
How it was run: as §1

Variant	self-cleavage kobs at 160 uM GlcN6P [1] [s⁻¹]	self-cleavage kobs at 640 uM GlcN6P [2] [s⁻¹]	self-cleavage kobs at 2500 uM GlcN6P [3] [s⁻¹]	self-cleavage kobs at 10000 uM GlcN6P [4] [s⁻¹]
G37A C50G C71A	0.000356 ± 0.00012	0.000114 ± 3.6e-05	6.17e-05 ± 2.4e-05	–
G35U G43U A53C C70A	< 1e-05	–	–	–
A12C G59A G63C	< 1e-05	< 1e-05	–	–
G7A G37U	< 1e-05	< 1e-05	< 1e-05	< 1e-05
A6U U45A A53C	< 1e-05	4.01e-05 ± 1.9e-05	4.74e-05 ± 2.2e-05	–
C16G A42G A53G C67G	0.000151 ± 3.4e-05	0.000268 ± 5.9e-05	0.000323 ± 8.1e-05	–
G13U U47G A52C	< 1e-05	–	< 1e-05	–
A15C C50G	0.000107 ± 3.2e-05	–	0.000205 ± 5.8e-05	–
C34U G35C	< 1e-05	–	< 1e-05	< 1e-05
A6U A12G A48U G59U G62A	< 1e-05	–	–	–
A33C A39C A52U C70U	< 1e-05	< 1e-05	–	–
A15C A39G U56G C61G	< 1e-05	< 1e-05	< 1e-05	–
G32C C34A C67G C70A	< 1e-05	–	–	–
C16A C34G U49A C50A	< 1e-05	–	–	–
U30C G35U G40U A42G U47C	< 1e-05	< 1e-05	–	–
G13A G43C G66A	< 1e-05	–	< 1e-05	< 1e-05
A12G A14U A15U	4.38e-05 ± 2.1e-05	–	–	–
G35C A36U C58U	< 1e-05	–	< 1e-05	–
G43A U65C	< 1e-05	< 1e-05	< 1e-05	–
C8A C16A G40C U65G	< 1e-05	–	< 1e-05	–
G13C A15U G51U C67U C68G	6.58e-05 ± 2.5e-05	–	–	–
A15U U30G U46G C67G	5.03e-05 ± 1.7e-05	6.26e-05 ± 1.3e-05	0.000146 ± 2.2e-05	–

Variant	self-cleavage kobs at 160 uM GlcN6P [1] [s⁻¹]	self-cleavage kobs at 640 uM GlcN6P [2] [s⁻¹]	self-cleavage kobs at 2500 uM GlcN6P [3] [s⁻¹]	self-cleavage kobs at 10000 uM GlcN6P [4] [s⁻¹]
G7C G13U A36C C68A	< 1e-05	–	< 1e-05	–
U30G G63A	< 1e-05	< 1e-05	< 1e-05	< 1e-05
G32U A52U	< 1e-05	< 1e-05	< 1e-05	–
G44U C58A C71A	< 1e-05	< 1e-05	< 1e-05	–
G32C G44A A48U	< 1e-05	< 1e-05	< 1e-05	–
G7U C34A U65G	< 1e-05	< 1e-05	–	–
A36U G63C C67U	< 1e-05	< 1e-05	< 1e-05	–
G9A C16U G41A A48U	< 1e-05	< 1e-05	< 1e-05	< 1e-05
G29A G41U A53C C58A	< 1e-05	< 1e-05	< 1e-05	–
G37A G38U U55C	< 1e-05	< 1e-05	–	–
G9A A14U A36C U46G	< 1e-05	–	< 1e-05	–
C8U G29U G41A G44C	< 1e-05	–	–	–
C61U A64C C67G	< 1e-05	–	< 1e-05	–
A39G A52U C61G A64C	< 1e-05	< 1e-05	< 1e-05	–
C10U A39U A64U C70G	< 1e-05	< 1e-05	–	–
G37C G43C A52C	< 1e-05	–	< 1e-05	–
G38U G43U U65C	< 1e-05	–	–	–
C34G A36C G38U A64C	< 1e-05	–	–	–
C8U A12C G43C U49C	< 1e-05	< 1e-05	< 1e-05	< 1e-05
G40C A53U C70U	9.81e-05 ± 3.6e-05	9.65e-05 ± 2.1e-05	0.000268 ± 5.4e-05	–
C10A A48C U56C	< 1e-05	< 1e-05	–	–
A6U C11U	< 1e-05	–	–	–

Variant	self-cleavage kobs at 160 uM GlcN6P [1] [s⁻¹]	self-cleavage kobs at 640 uM GlcN6P [2] [s⁻¹]	self-cleavage kobs at 2500 uM GlcN6P [3] [s⁻¹]	self-cleavage kobs at 10000 uM GlcN6P [4] [s⁻¹]
G60U A64C G66U C70A	< 1e-05	–	–	–
G60C G63A	< 1e-05	< 1e-05	< 1e-05	< 1e-05
A14G A36C	< 1e-05	< 1e-05	–	–
G38A A53C	< 1e-05	–	–	–
C16G C67G	0.000347 ± 0.00013	9.56e-05 ± 1.7e-05	8.7e-05 ± 1.4e-05	6.6e-05 ± 7e-06
G37A U49C	< 1e-05	< 1e-05	< 1e-05	< 1e-05
U49A U54A C70G	4.17e-05 ± 1.8e-05	–	–	–
C8U G32A	< 1e-05	–	< 1e-05	< 1e-05
A33C C34G G40U A48U C61A	< 1e-05	< 1e-05	< 1e-05	–
C10A U57A A64G C67G C71A	0.000245 ± 7.6e-05	–	8.51e-05 ± 3.3e-05	–
G51C G59A	< 1e-05	< 1e-05	< 1e-05	–
G60U C68U	< 1e-05	–	–	< 1e-05
G32C G63U	< 1e-05	< 1e-05	–	–
U45C U46C	0.000106 ± 3e-05	0.000335 ± 5.7e-05	0.00111 ± 0.00037	–
C50G G51A	< 1e-05	–	–	< 1e-05
C16G A48G C68A C71G	5.61e-05 ± 2.2e-05	0.000118 ± 3.8e-05	–	–
A12U U47C U65C	< 1e-05	–	–	–
A36U A42U	< 1e-05	< 1e-05	< 1e-05	< 1e-05
G40C U69A	< 1e-05	–	< 1e-05	–
G29U G43C U47A G63A	< 1e-05	< 1e-05	< 1e-05	–
G38C G63A	< 1e-05	< 1e-05	< 1e-05	–
C10U A33C G59A G66U	< 1e-05	< 1e-05	–	–

Variant	self-cleavage kobs at 160 uM GlcN6P [1] [s⁻¹]	self-cleavage kobs at 640 uM GlcN6P [2] [s⁻¹]	self-cleavage kobs at 2500 uM GlcN6P [3] [s⁻¹]	self-cleavage kobs at 10000 uM GlcN6P [4] [s⁻¹]
G9C U46G C67G	< 1e-05	–	–	–
C61G G62U	< 1e-05	< 1e-05	< 1e-05	–
C34G G40U G41A C58U	< 1e-05	< 1e-05	–	–
C8A A33C G35U G63U	< 1e-05	< 1e-05	< 1e-05	–
G35U G51A	< 1e-05	< 1e-05	–	< 1e-05
A42C C61U	< 1e-05	< 1e-05	< 1e-05	–
U46C C58U C67A	< 1e-05	–	–	–
C10G U46A U55C	< 1e-05	–	< 1e-05	–
A15G C34U G63A	< 1e-05	–	< 1e-05	–
C11G A15G U65C	< 1e-05	–	–	–
A53U U54G U55A U56A	0.000355 ± 7.8e-05	–	–	–
G35C G62U	< 1e-05	< 1e-05	< 1e-05	< 1e-05
U30G G32A G35A C67U	< 1e-05	< 1e-05	–	–
C10U G40C G44U	< 1e-05	–	< 1e-05	< 1e-05
A14G C61G	< 1e-05	–	–	–
A6C G7C A33C C50G A52C U65C	< 1e-05	–	–	–
A39C U49A C61U C68G	< 1e-05	–	< 1e-05	–
A64U C68U	< 1e-05	< 1e-05	–	–
U31A G35C U54A A64U	< 1e-05	–	< 1e-05	–
C11G G13A G44U U69G	< 1e-05	–	< 1e-05	–
A6G C8A A48C	< 1e-05	–	–	–
G29A G60A	< 1e-05	< 1e-05	–	–

Variant	self-cleavage kobs at 160 uM GlcN6P [1] [s⁻¹]	self-cleavage kobs at 640 uM GlcN6P [2] [s⁻¹]	self-cleavage kobs at 2500 uM GlcN6P [3] [s⁻¹]	self-cleavage kobs at 10000 uM GlcN6P [4] [s⁻¹]
C8G C16A	< 1e-05	< 1e-05	< 1e-05	< 1e-05
C11A A36U U56A C68G C70A	6.51e-05 ± 2.8e-05	0.000823 ± 0.0003	–	4.16e-05 ± 1.8e-05
C8G U56A G62U	< 1e-05	< 1e-05	< 1e-05	–
G29U U31A U56A C67A	2.97e-05 ± 1.5e-05	–	–	0.00027 ± 5.8e-05
G35C U69G	< 1e-05	–	< 1e-05	–
G13U A14C G32A U46C G63A C68U U69G C71U	< 1e-05	< 1e-05	–	–
A6G C11U A15U C50U	< 1e-05	–	–	< 1e-05
A39C G44U U46C G60U G63C C68A C71A	< 1e-05	< 1e-05	< 1e-05	–
G38A G41A C71A	< 1e-05	–	< 1e-05	–
C10U C11G A33U	< 1e-05	< 1e-05	< 1e-05	< 1e-05
G9U G41C U47G	< 1e-05	< 1e-05	< 1e-05	–
G7U C71U	< 1e-05	–	–	< 1e-05
A36C G41A G66U	< 1e-05	–	< 1e-05	–
G7U G60C G66U	< 1e-05	–	–	–
U55G C68A	0.000151 ± 6.4e-05	6.91e-05 ± 2.2e-05	9.69e-05 ± 1.8e-05	2.8e-05 ± 1.4e-05
A6U G44U C61U	< 1e-05	< 1e-05	< 1e-05	–
A6U U47A A53U	< 1e-05	–	–	–
A33C G44U	< 1e-05	< 1e-05	< 1e-05	< 1e-05
